Experiment [1] concerns the target T1, human BTLA (B- and T-lymphocyte attenuator) on cells (human, UniProt Q7Z6A9 31-289).
T1 construct: whole, on cells; also called hBTLA; HEK293.BTLA
The experiment is described as follows: FACS, primary human B cells, donor 149, AF647 anti-human IgG Fc secondary antibody. The protocol: (§1) In FIGS. 4A-4D, primary T cells and B cells were isolated from human PBMC with EasySep™ Human T Cell Isolation Kit and B cell isolation kit ([…] Technologies: Vancouver, Canada). Isolated T cells or B cells were incubated with different concentrations of anti-BTLA parental antibodies. Anti-BTLA antibody binding to target cells was quantified with an AF647-conjugated anti-human IgG Fc 2nd antibody by FACS.

In experiment [2] the target is T1, human BTLA (B- and T-lymphocyte …). Nature of the experiment: FACS on HEK293T.hBTLA cells, AF647 anti-human IgG Fc detection. The protocol:
(§2) In FIGS. 11A and 11B, HEK293 overexpressing human BTLA (FIG. 11A) and Expi293 cells overexpressing cynomolgus BTLA (FIG. 11B) were incubated with different concentrations of selected HFB6-3 humanized variants with cysteine mutations. Anti-BTLA antibodies binding to target cells were quantified with an AF647-conjugated anti-human IgG Fc 2nd antibody by FACS. HFB6-3hz24-hG4P-C109A, HFB6-3hz25-hG4P-C109A, HFB6-3hz24-hG4P-C109S and HFB6-3hz25-hG4P-C109S bound to human BTLA and cyno BTLA with single digit nM and sub-nM EC₅₀, similar as parental HFB6-3 (FIGS. 11A and 11B and Table 13).

The target in experiment [3] is T2, cynomolgus BTLA on cells (cynomolgus, UniProt A0A2K5W7M7 31-289).
T2 construct: whole, on cells; Overexpressed on Expi293 cells; also called cyno BTLA; CynoBTLA
T2 sequence: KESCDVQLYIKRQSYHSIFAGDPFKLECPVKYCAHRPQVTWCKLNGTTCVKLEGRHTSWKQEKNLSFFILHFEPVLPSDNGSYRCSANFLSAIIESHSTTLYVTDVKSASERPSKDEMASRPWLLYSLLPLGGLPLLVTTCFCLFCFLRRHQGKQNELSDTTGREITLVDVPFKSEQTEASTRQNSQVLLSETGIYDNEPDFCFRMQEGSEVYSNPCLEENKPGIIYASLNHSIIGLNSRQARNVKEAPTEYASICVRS
The experiment is described as follows: FACS on Expi293 cells overexpressing cynomolgus BTLA, AF647 anti-human IgG Fc detection. The protocol: (§3) In FIGS. 2A-2B, HEK293 cells overexpressing human BTLA and Expi293 cells overexpressing cynomolgus BTLA were incubated with different concentrations of anti-BTLA parental antibodies. Anti-BTLA antibody binding to target cells was quantified with an AF647-conjugated anti-human IgG Fc 2nd antibody by FACS.

The target of experiment [4] is T1, human BTLA (B- and T-lymphocyte …). Nature of the experiment: FACS on HEK293 cells overexpressing human BTLA, AF647 anti-human IgG Fc detection. The protocol: as §3
Experiment [5] concerns the target T2, cynomolgus BTLA on cells. Nature of the experiment: FACS on Expi293.cynoBTLA cells, AF647 anti-human IgG Fc detection. How it is done: as §2
Experiment [6] concerns the target T1, human BTLA (B- and T-lymphocyte …). The experiment is described as follows: cell-based or functional assay.
Experiment [7] has the same target. The experiment is described as follows: cell-based or functional assay. The source holds these as a separate data set.
For experiment [8] the target is unchanged. Nature of the experiment: FACS, primary human B cells, donor 1709, AF647 anti-human IgG Fc secondary antibody. How it is done: as §1
Background: A flow cytometer gives signals particle by particle.

Experiment [9] shares this target. Nature of the experiment: FACS competition on HEK293.BTLA cells; competitor DL650-conjugated soluble HVEM. The protocol: In FIG. 3A, recombinant HVEM soluble protein was conjugated with DyLight 650 (DL650) fluorophore. HEK293 cells overexpressing hBTLA (HEK293.BTLA) were preincubated with increasing concentrations of HFB6-2 and HFB6-3 at 4° C. for 30 minutes and then with DL650-conjugated HVEM for an additional 30 minutes. After washing, soluble HVEM remaining associated with BTLA on HEK293.BTLA cells was measured by FACS. HFB6-2 and HFB6-3 blocked soluble HVEM and cellular BTLA interaction with single digit nM IC₅₀.

Experiment [10] shares this target. The experiment is described as follows: FACS, primary human T cells, donor 1709, AF647 anti-human IgG Fc secondary antibody. How it is done: as §1
Experiment [11] has the same target. Nature of the experiment: FACS competition on HEK293T.hBTLA cells; competitor hrHVEM-His-DL650. The protocol:
In FIG. 12A, recombinant HVEM soluble protein was conjugated with DyLight 650 (DL650) fluorophore. HEK293 cells overexpressing hBTLA (HEK293.BTLA) were preincubated with increasing concentrations of selected HFB6-3 humanized variants with cysteine mutants or parental HFB6-3 at 4° C. for 30 minutes and then with DL650-conjugated HVEM for additional 30 minutes. After washing, soluble HVEM remaining associated with BTLA on HEK293.BTLA cells was measured by FACS.

Experiment [12] shares this target. Nature of the experiment: FACS, primary human T cells, donor 149, AF647 anti-human IgG Fc secondary antibody. How it is done: as §1
The target is the same in experiment [13]. The experiment is described as follows: FACS, HEK293 cells overexpressing human BTLA, AF647 anti-human IgG Fc secondary antibody.
Experiment [14] has as its target T2, cynomolgus BTLA on cells. The experiment is described as follows: FACS, Expi293 cells overexpressing cynomolgus BTLA, AF647 anti-human IgG Fc secondary antibody.
For another experiment, the target named is T3, recombinant human BTLA (human, UniProt Q7Z6A9 31-157, limits assumed).
T3 construct: ELISA antigen; construct not described
T3 sequence (looked up): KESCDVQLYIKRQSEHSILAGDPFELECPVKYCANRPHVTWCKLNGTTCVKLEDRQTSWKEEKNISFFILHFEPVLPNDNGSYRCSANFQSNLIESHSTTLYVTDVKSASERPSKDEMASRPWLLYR
The experiment is described as follows: ELISA on recombinant human BTLA.

Experiment [15] concerns the target T1, human BTLA (B- and T-lymphocyte …). The experiment is described as follows: cell-based or functional assay. This is another data set of the same source.

One may read the EC50 as the concentration at which the effect is half-maximal. The IC50 is the midpoint of a concentration-inhibition curve. Read a high IC50 as a need for much substance. One may read the EC50 (read off the curve) as the concentration at which the effect is half-maximal. A high value points to weaker potency.

B1: HFB6-3 (antibody, V domains shown)
VH: EVQLQQSGAELVKPGASVKLSCTDSGFNIKDTYIHWVTQRPQQGLEWIGRIDPANGFTRYDPKFQGKATITSDTSSNTAYLQLSSLTSEDTAVYYCAREDGYPYYTLDCWGQGTSVTVSS
VL: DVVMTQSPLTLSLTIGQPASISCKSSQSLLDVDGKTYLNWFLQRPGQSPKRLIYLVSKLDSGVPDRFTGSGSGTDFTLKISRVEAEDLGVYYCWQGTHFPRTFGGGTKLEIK
notes: Mouse lead antibody; also called HFB6-3-hG4P; parental HFB6-3
B1: the EC50 in [1] came to 0.44 nM; in experiment [2], 3.21 nM; with cynomolgus BTLA on cells [3], 0.823 nM; in experiment [4], 1.45 nM; with cynomolgus BTLA on cells [5], 5.7 nM; in [8] it was 0.28 nM. The figures for the half-maximal effective concentration (EC50) in [10] and in experiment [12] were 7.3 nM and 3.7 nM, respectively. Besides, in experiment [6], the “BTLA-HVEM blockade reporter assay, EC50” value is 12.5 nM. The “CHO.TCRa.hHVEM/Jurkat.hBTLA.NFAT-luc (EC50 (nM))” value in [7] turned out to be 7.9 nM. Further, the IC50 in experiment [9] was 7.71 nM; in [11], 2.69 nM.

B2: 22B3 (antibody, V domains shown)
VH: QVQLVQSGAEVKKPGASVKVSCKASGFSLSSYGVSWVRQAPGQGLEWMGAISYDGITYYASWAKSRVTMTRDTSTSTVYMELSSLRSEDTAVYYCARGDYYDDYVYVYALDIWGQGTLVTVSS
VL: EIVLTQSPGTLSLSPGERATLSCQASQSISTALAWYQQKPGQAPRLLIYAASTLASGIPDRFSGSGSGTDFTLTISRLEPEDFAVYYCQQGYSSSNLDNVFGGGTKVEIKR
Regarding B2, the “EC50 (read off the curve)” value in experiment [13] was approximately 0.8 nM; with cynomolgus BTLA on cells [14], approximately 0.6 nM.

B3: HFB6-2 (antibody, V domains shown)
VH: EVQLQQSGAELVKPGASVKLSCTASGVNIKDTYMYWVKQRPEQGLEWIGRIDPANGYTRYDPKFQDKATVTADTSSNTAHLQLSSLTSEDTAVYYCAVNDGYFEYFDVWGAGTTVTVSS
VL: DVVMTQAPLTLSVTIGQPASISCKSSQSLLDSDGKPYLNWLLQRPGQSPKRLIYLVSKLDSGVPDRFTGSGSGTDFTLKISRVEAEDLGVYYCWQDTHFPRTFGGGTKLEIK
notes: Mouse lead antibody; also called HFB6-2-hG4P; parental HFB6-2
With B3, the concentration giving a half-maximal response (EC50) in [1] turned out to be 0.8 nM; with cynomolgus BTLA on cells [3], 0.614 nM; in experiment [4] it was 2.34 nM; with recombinant human BTLA, 2.35 nM; in experiment [8], 0.28 nM; in experiment [10], 2 nM. Also, the EC50 in experiment [12] is 1.4 nM. Further, in [6], the “BTLA-HVEM blockade reporter assay, EC50” value was 10.2 nM. In addition, in experiment [9], the IC50 came to 5.45 nM. In experiment [15], the “Reporter EC50” value came out at 11.5 nM.

The values are drawn from patent publication US20250304693A1 (HIFIBIO, published 2025).
